The source of these data is patent US7514408.

Square brackets hold non-standard residues; d marks the D form. Ends that are not written are not given here. Sta = CC(C)C[C@H](N)[C@@H](O)CC(=O)O; Phg = N[C@H](C(=O)O)c1ccccc1; Tle = CC(C)(C)[C@H](N)C(=O)O; Abu = CC[C@H](N)C(=O)O Bounds are passed on as bounds.

Data set [1] has as its target β-secretase (enzyme preparation not stated for the inhibitor assays) (human) (UniProt P56817). Kind of data set: cell-based or functional assay.
The target of data set [2] is Swedish mutant P13-P5′ peptide with P1′ aspartic acid replaced with a leucine (D→L), P05067.
The target in data set [3] is Swedish mutant P13-P5′ peptide with P1′ aspartic acid replaced with a valine (D→V), P05067.
Swedish mutant P13-P5′ peptide with P1′ aspartic acid replaced with a valine (D→V), P05067, sequence (P05067 whole entry, looked up, change not shown, tested part not stated): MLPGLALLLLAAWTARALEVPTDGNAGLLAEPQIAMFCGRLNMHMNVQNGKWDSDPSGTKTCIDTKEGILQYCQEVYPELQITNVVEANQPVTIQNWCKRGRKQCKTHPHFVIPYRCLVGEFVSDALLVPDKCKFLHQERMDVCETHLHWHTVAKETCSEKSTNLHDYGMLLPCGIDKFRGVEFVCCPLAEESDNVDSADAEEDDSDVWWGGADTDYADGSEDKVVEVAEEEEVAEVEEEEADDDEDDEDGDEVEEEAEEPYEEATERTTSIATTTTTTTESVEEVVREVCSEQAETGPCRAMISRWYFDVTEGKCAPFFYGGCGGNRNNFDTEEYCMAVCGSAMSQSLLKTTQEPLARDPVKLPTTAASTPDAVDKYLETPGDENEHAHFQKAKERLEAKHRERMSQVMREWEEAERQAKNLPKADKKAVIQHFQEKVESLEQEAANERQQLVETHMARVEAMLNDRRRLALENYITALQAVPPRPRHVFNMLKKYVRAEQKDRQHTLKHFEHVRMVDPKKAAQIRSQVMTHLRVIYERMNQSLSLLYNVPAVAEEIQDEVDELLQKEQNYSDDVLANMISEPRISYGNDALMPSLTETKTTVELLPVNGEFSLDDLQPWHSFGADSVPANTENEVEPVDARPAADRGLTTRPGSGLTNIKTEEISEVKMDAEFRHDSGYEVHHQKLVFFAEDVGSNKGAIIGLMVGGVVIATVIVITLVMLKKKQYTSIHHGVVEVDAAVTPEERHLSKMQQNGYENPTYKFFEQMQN

Swedish mutant P13-P5′ peptide with P1′ aspartic acid replaced with a leucine (D→L), P05067, sequence (P05067 whole entry, looked up, change not shown, tested part not stated): as above

In data set [1], Ac-VM[Sta]AEF [hexameric peptide 7N (Ac-Val-Met-Sta-Ala-Glu-Phe, P1′ deleted)] came in with an IC50 Group, MBP C125 assay (Group II: =1<10 µM) of less than 10 µM.
Ac-VM[Sta][Abu]AEF [heptamer peptide 7C (Ac-Val-Met-Sta-Abu-Ala-Glu-Phe)]: the IC50 Group, MBP C125 assay (Group II: =1<10 µM) in data set [1] is less than 10 µM.
Same read-out and setting: the same measure for Ac-VM[Sta]AAEF [heptamer peptide 7E (Ac-Val-Met-Sta-Ala-Ala-Glu-Phe)]: less than 10 µM; for Ac-VE[Sta]VAEF [heptamer peptide 7K (Ac-Val-Glu-Sta-Val-Ala-Glu-Phe)]: less than 10 µM; for H-VM[Sta]VEF [hexameric peptide 7R ((NH2)Val-Met-Sta-Val-Glu-Phe, P2′ deleted)]: less than 10 µM.
Turning to Ac-VM[Sta][Phg]AEF [heptamer peptide 7D (Ac-Val-Met-Sta-Phg-Ala-Glu-Phe)], in data set [1], the IC50 Group, MBP C125 assay (Group II: =1<10 µM) is less than 10 µM.
Ac-VG[Sta]VAEF [heptamer peptide 7M (Ac-Val-Gly-Sta-Val-Ala-Glu-Phe)] gave an IC50 Group, MBP C125 assay (Group II: =1<10 µM) in data set [1] of less than 10 µM.

B1: β-secretase purified from human brain (naturally occurring β-secretase) (protein)
chain: ETDEEPEEPGRRGSFVEMVDNLRGKSGQGYYVEMTVGSPPQTLNILVDTGSSNFAVGAAPHPFLHRYYQRQLSSTYRDLRKGVYVPYTQGKWEGELGTDLVSIPHGPNVTVRANIAAITESDKFFINGSNWEGILGLAYAEIARPDDSLEPFFDSLVKQTHVPNLFSLQLCGAGFPLNQSEVLASVGGSMIIGGIDHSLYTGSLWYTPIRREWYYEVIIVRVEINGQDLKMDCKEYNYDKSIVDSGTTNLRLPKKVFEAAVKSIKAASSTEKFPDGFWLGEQLVCWQAGTTPWNIFPVISLYLMGEVTNQSFRITILPQQYLRPVEDVATSQDDCYKFAISQSSTGTVMGAVIMEGFYVVFDRARKRIGFAVSACHVHDEFRTAAVEGPFVTLDMEDCGYNIPQTDESTLMTIAYVMAAICALFMLPLCLMVCQWRCLRCLRQQHDDFADDISLLK
For the molecule B1, the “substrate concentration dependence of hydrolysis by brain β-secretase” value in data set [2] was “The valine and leucine substituted Swedish peptides show saturation at a lower concentration than the parent Swedish peptide”; in data set [3], “The valine and leucine substituted Swedish peptides show saturation at a lower concentration than the parent Swedish peptide”.
In data set [1], Ac-VV[Sta]VAEF [heptamer peptide 7L (Ac-Val-Val-Sta-Val-Ala-Glu-Phe)] registered an IC50 Group, MBP C125 assay (Group IV: =20<50 µM) of less than 50 µM.
Turning to Ac-VM[Sta][Tle]AEF [heptamer peptide 7F (Ac-Val-Met-Sta-tLeu-Ala-Glu-Phe)], in data set [1], the IC50 Group, MBP C125 assay (Group IV: =20<50 µM) was less than 50 µM.
